According to patent US20260103526A1 (OSE IMMUNOTHERAPEUTICS, published 2026):

T1: recombinant hCLEC1-His (R&D SYSTEMS reference 1704-CL) (human, UniProt Q8NC01 74-280, limits assumed)
T1 construct: Bought protein; also called CLEC-His; Clec-His; not shown: His tag
T1 sequence: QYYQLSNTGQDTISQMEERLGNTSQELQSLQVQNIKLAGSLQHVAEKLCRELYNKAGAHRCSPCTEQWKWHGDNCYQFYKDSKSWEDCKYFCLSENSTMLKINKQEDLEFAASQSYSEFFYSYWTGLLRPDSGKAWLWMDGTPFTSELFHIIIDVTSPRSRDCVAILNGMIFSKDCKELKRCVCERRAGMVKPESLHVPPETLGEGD

T2: mice CLEC-1A protein (mouse, UniProt Q8BWY2 73-269, limits assumed)
T2 construct: also called mice orthologue of CLEC-1A
T2 sequence (looked up): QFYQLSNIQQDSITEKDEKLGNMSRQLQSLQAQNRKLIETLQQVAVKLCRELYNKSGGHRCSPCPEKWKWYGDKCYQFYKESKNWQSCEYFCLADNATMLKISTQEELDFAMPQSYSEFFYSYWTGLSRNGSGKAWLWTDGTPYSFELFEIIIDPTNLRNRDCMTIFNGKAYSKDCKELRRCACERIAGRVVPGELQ

T3: Fc-CLEC-1A (recombinant human Fc-CLEC-1 protein, OSE IMMUNOTHERAPEUTICS) (human, Alexa Fluor 488 label in the flow cytometry competition assays)
T3 construct: also called hFc-CLEC; Fc-CLEC1-A488
T3 chain: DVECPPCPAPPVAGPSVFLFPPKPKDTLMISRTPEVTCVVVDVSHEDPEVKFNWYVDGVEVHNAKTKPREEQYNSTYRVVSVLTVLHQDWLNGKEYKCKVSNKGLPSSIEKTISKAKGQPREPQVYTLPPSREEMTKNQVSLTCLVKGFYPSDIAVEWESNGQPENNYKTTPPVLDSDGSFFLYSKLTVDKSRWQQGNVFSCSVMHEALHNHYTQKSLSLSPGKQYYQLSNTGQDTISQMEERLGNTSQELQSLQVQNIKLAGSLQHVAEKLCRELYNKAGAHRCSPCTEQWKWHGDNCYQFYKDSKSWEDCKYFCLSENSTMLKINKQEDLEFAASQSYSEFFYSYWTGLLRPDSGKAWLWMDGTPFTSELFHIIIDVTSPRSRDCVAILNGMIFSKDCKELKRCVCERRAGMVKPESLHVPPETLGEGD


Assays:
[1] = biological target: T1, recombinant hCLEC1-His (R&D SYSTEMS …); experiment: BLITZ: CLEC-His immobilised on a NINTA biosensor (10 µg/ml), antibody at 20 µg/ml, 120 s association and 120 s dissociation
mice CLEC-1A protein = biological target: T2, mice CLEC-1A protein; experiment: in vitro; assay not given
[2] = biological target: T3, Fc-CLEC-1A (recombinant human Fc-CLEC-1 …); experiment: flow cytometry competition; inhibition of Fc-CLEC-1-A488 binding to Hepa 1.6 or MC38 cells; reference chimeric 6C5
Source text: (§1) Murine hepatoma Hepa 1.6 or colorectal carcinoma MC38 cell lines were also used in an antagonist assay. […] Finally, cells were fixed with 1% PFA solution and read on a cytometer.

[3] = biological target: T3, Fc-CLEC-1A (recombinant human Fc-CLEC-1 …); experiment: flow cytometry competition: antibody pre-incubated with A488-labelled human Fc-CLEC-1 (10 µg/mL), then binding to live MC38 cells (ligand m16); % hFc-CLEC-1+ cells normalised on hIgG4
Source text: as §1

[4] = biological target: T3, Fc-CLEC-1A (recombinant human Fc-CLEC-1 …); experiment: flow cytometry competition: antibody pre-incubated with A488-labelled Fc-CLEC1 (100 nM), then binding to permeabilised NALM6 cells (CLEC-1 ligand m15); % stained cells
Method: Revelation was performed on CYTOFLEX cytometer, values corresponding to percentage of stained cells (%).
To measure competition on NALM6 cells.

[5] = biological target: T3, Fc-CLEC-1A (recombinant human Fc-CLEC-1 …); experiment: flow cytometry competition: antibody pre-incubated with A488-labelled human Fc-CLEC-1 (10 µg/mL), then binding to live Hepa1.6 cells (ligand m16); % hFc-CLEC-1+ cells normalised on hIgG4
Source text: as §1

[6] = biological target: T3, Fc-CLEC-1A (recombinant human Fc-CLEC-1 …); experiment: flow cytometry competition; inhibition of Fc-CLEC-1-A488 binding to Hepa 1.6 or MC38 cells; reference chimeric 11H11
Source text: as §1

[7] = biological target: T3, Fc-CLEC-1A (recombinant human Fc-CLEC-1 …); experiment: flow cytometry competition: antibody pre-incubated with A488-labelled Fc-CLEC1 (10 nM), then binding to permeabilised Raji cells (CLEC-1 ligand m15); % stained cells
[8] = biological target: T3, Fc-CLEC-1A (recombinant human Fc-CLEC-1 …); experiment: flow cytometry competition; inhibition of Fc-CLEC-1-A488 binding to Hepa 1.6 cells; reference chimeric 14H9
Source text: as §1

Binder | Kd [1] | koff [1] | kon [1] | binding result (mice CLEC-1A protein) | EC50 ratio, humanized against chimeric counterpart [2] | EC50 [3] | IC50 (read off the curve) [4] | EC50 [5] | EC50 ratio, humanized against chimeric counterpart [6] | IC50 (read off the curve) [7] | EC50 ratio, humanized against chimeric counterpart [8]
chimeric 6C5 (antibody, V domains shown) VH: QVQLQQSGPELVKPGASVKMSCKASGYTFTDYVISWVKQKTGQGLEWIGEIYPGSGNTYYNEKFKGKATLTADKSSSTAYIHLSSLTSEDSAVYFCAGGGSSHFDYWGQGTTLTVSS VL: not shown |  |  |  |  |  | 2.81 µg/mL |  | 2.44 µg/mL |  |  | 
chimeric 11H11 (antibody, V domains shown) VH: QIHLVQSGPELKKPGETVKISCKASGYTFTNFGMNWVKQAPGKGLKWMGWINTNTGEPTYADDFKGRFAFSLETSASTAYLQINNLKNEDTATYFCARGAPAWFTYWGQGTLVTVSA VL: DIQMTQSPASLSASVGETVTITCRATENIYSYLAWYQQKQGKSPQFLVYNAKTLAEGMPSRFSGSGSGTQFSLKINILQPEDFGTYYCQHHFGTPLTFGAGTKLELKR |  |  |  |  |  | 2.33 µg/mL |  | 2.58 µg/mL |  |  | 
chimeric 14H9 (antibody, V domains shown) VH: QVQLKESGPGLVAPSQSLSITCTISGFSLTTYGIHWVRQPPGKGLEWLVVIWSDGSTIYNSALKSRLSISKDNSKSQVFLKMNSLQTDDTAIYYCARHGGYYNYFDYWGQGTTLTVSS VL: DIQMNQSPSSLSASLGDTITITCHASQNINVWLSWYQQKPGNIPKLLIYKASNLHTGVPSRFSGSGSGTTFTLTIDSLQPEDIATYYCQQGQSYWTFGGGTKLEIKR |  |  |  |  |  |  |  | 2.72 µg/mL |  |  | 

Further lines, results first:

Kd [1] | koff [1] | kon [1] | binding result (mice CLEC-1A protein) | EC50 ratio, humanized against chimeric counterpart [2] | EC50 [3] | IC50 (read off the curve) [4] | EC50 [5] | EC50 ratio, humanized against chimeric counterpart [6] | IC50 (read off the curve) [7] | EC50 ratio, humanized against chimeric counterpart [8] | Binder
5.69 nM | 0.000275 s⁻¹ | 48300 M⁻¹ s⁻¹ | no binding | ≤ 0.5 fold (EC50 humanized / EC50 chimeric) | 0.522 µg/mL | ~3 µg/mL | 1.06 µg/mL |  |  |  | humanized 6C5 (antibody, V domains shown, Only variable domains are tied to the antibody) VH: QVQLVQSGAEVKKPGSSVKMSCKASGYTFTDYVISWVRQAPGQGLEWMGEIYPGSGNTYYNQKFQGRVTLTADKSTSTAYMELSSLRSEDTAVYYCAGGGSSHFDYWGQGTTVTVSS VL: EIVLTQSPATLSLSPGERATLSCRASQSVDNHGFSFMNWFQQKPGQAPRLLIYAASNRGTGIPARFSGSGSGTDFTLTISSMEPEDFAVYYCQQSKEVPWTFGGGTKVEIK
0.301 nM | 7.19e-05 s⁻¹ | 239000 M⁻¹ s⁻¹ | no binding |  | 1.33 µg/mL | ~3 µg/mL | 0.542 µg/mL | ≤ 0.5 fold (EC50 humanized / EC50 chimeric) |  |  | humanized 11H11 (antibody, human IgG4, V domains shown, Only variable domains are tied to the antibody; also called hum 11H11) VH: QIQLVQSGSELKKPGASVKVSCKASGYTFTNFGMNWVRQAPGQGLEWMGWINTNTGEPTYADDFKGRFVFSLDTSVSTAYLQISSLKAEDTATYFCARGAPAWFTYWGQGTTVTVSS VL: DIQMTQSPSSLSASVGDRVTITCRASESIYSYLAWYQQKPGKAPKFLIYNAKTLASGVPSRFSGSGSGTDFTLTISSLQPEDFATYYCQHHFGTPLTFGQGTKLEIK
5.4 nM | 0.000419 s⁻¹ | 77700 M⁻¹ s⁻¹ | no binding |  |  | ~3 µg/mL | 0.539 µg/mL |  | ~0.2 µg/mL | ≤ 0.5 fold (EC50 humanized / EC50 chimeric) | humanized 14H9 (antibody, V domains shown, Only variable domains are tied to the antibody) VH: QVQLVESGGGVVQPGRSLRLSCAISGFTLTTYGIHWVRQAPGKGLEWVAVIWSDASTIYASSLKSRFTISKDNTKNTVYLQMTSLRAEDTAVYYCARHGGYYNYFDYWGQGTLVTVSS VL: DIQMTQSPSSLSASVGDRVTITCHASQNINVWLSWYQQKPGKAPKLLLYKASNLHTGVPSRFSGSGSGTDFTLTISSLQPEDIATYYCQQGQSYWTFGGGTKVEIK
